Reference: patent US20220096600A1

Biological target: CCR5 on mouse periosteal skeletal stem cells / mouse cells in vivo (mouse) (UniProt P51682)
Test: cell-based or functional assay

Chain of UniProt P51682 (P51682 whole entry): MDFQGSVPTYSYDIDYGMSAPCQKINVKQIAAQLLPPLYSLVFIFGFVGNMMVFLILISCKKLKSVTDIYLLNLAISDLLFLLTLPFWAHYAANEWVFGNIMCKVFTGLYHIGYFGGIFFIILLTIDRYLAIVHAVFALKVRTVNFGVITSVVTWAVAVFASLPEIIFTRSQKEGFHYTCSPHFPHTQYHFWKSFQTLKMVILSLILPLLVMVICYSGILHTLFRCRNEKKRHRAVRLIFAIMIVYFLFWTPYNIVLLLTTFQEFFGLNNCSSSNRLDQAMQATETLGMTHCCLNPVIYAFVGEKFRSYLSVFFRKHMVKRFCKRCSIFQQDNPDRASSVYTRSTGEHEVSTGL

Substance: CCL5 (ligand)
- average in vivo migration speed of Mx1+aSMA+ P-SSCs under CCL5 administration: 57 µm/h
